Laboratory results as given in US20170002055A1, “Novel peptides and combination of peptides for use in immunotherapy against ovarian cancer and other cancers” (immatics biotechnologies GmbH, priority 2015, published 2017).

Each substance was assayed against HLA-A*02:01 (Homo sapiens, UniProt P04439, D140Y/D185E/D98H/E176V/E277Q/G131W/G231S/I119V/I121R/I166T/I218V/L300P/L318F/N151K/N90K/P208A/P217A/Q86G/Q94H/R138H/R169H/T345S) (assay: MHC binding assay (UV-ligand exchange, β2m ELISA, peptide exchange yield)). Conditions: MHC class I binding score; binding to HLA-A*02:01 ranged by peptide exchange yield (UV-ligand exchange, β2m ELISA).
Procedure, shortened: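 Binding is expressed as peptide exchange yield: stabilized MHC complexes were quantified by β2m ELISA, with a 450 nm TMB read-out on streptavidin-coated plates. Complexes came from UV-ligand exchange, where UV irradiation cleaves a photolabile peptide so the candidate peptide can load.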

Substance | Peptide exchange
243 (LLLNELPSV; listed as Homo sapiens) [compound 243] | “+++” (≧50 = +++)
244 (SLFGGTEITI; listed as Homo sapiens) [compound 244] | “+++” (≧50 = +++)
245 (SMIDDLLGV; listed as Homo sapiens) [compound 245] | “+++” (≧50 = +++)
248 (FLFPNQYVDV; listed as Homo sapiens) [compound 248] | “+++” (≧50 = +++)
249 (LLDGFLVNV; listed as Homo sapiens) [compound 249] | “+++” (≧50 = +++)
250 (ALSEEGLLVYL; listed as Homo sapiens) [compound 250] | “+++” (≧50 = +++)
251 (ALYTGFSILV; listed as Homo sapiens) [compound 251] | “++” (≧20% = ++)
252 (LLIGTDVSL; listed as Homo sapiens) [compound 252] | “+++” (≧50 = +++)
253 (GLDAATATV; listed as Homo sapiens) [compound 253] | “++” (≧20% = ++)
254 (TLLAFIMEL; listed as Homo sapiens) [compound 254] | “+++” (≧50 = +++)
256 (FLPPEHTIVYI; listed as Homo sapiens) [compound 256] | “+++” (≧50 = +++)
258 (ELAERVPAI; listed as Homo sapiens) [compound 258] | “++” (≧20% = ++)
261 (YVLEFLEEI; listed as Homo sapiens) [compound 261] | “++” (≧20% = ++)
266 (KITDTLIHL; listed as Homo sapiens) [compound 266] | “+++” (≧50 = +++)
267 (ALQDFLLSV; listed as Homo sapiens) [compound 267] | “+++” (≧50 = +++)
269 (RVLEVGALQAV; listed as Homo sapiens) [compound 269] | “++” (≧20% = ++)
270 (LLLDEEGTFSL; listed as Homo sapiens) [compound 270] | “++” (≧20% = ++)
271 (LVYPLELYPA; listed as Homo sapiens) [compound 271] | “+++” (≧50 = +++)
273 (NLFQSVREV; listed as Homo sapiens) [compound 273] | “++” (≧20% = ++)
275 (YLVYILNEL; listed as Homo sapiens) [compound 275] | “++” (≧20% = ++)
276 (ALFTFSPLTV; listed as Homo sapiens) [compound 276] | “+++” (≧50 = +++)
278 (QLLDVVLTI; listed as Homo sapiens) [compound 278] | “++” (≧20% = ++)

Second part, the substance after the results:

Peptide exchange | Substance
“+++” (≧50 = +++) | 246 (LLWEVVSQL; listed as Homo sapiens) [compound 246]
“+++” (≧50 = +++) | 255 (VLASYNLTV; listed as Homo sapiens) [compound 255]
“+++” (≧50 = +++) | 257 (SIFSAFLSV; listed as Homo sapiens) [compound 257]
“+++” (≧50 = +++) | 262 (LLWGDLIWL; listed as Homo sapiens) [compound 262]
“+++” (≧50 = +++) | 263 (LLVSNLDFGV; listed as Homo sapiens) [compound 263]
“+++” (≧50 = +++) | 264 (SLQEQLHSV; listed as Homo sapiens) [compound 264]
“++” (≧20% = ++) | 265 (LLFGGTKTV; listed as Homo sapiens) [compound 265]
“+++” (≧50 = +++) | 272 (ALGNTVPAV; listed as Homo sapiens) [compound 272]
“++” (≧20% = ++) | 274 (SLLFSLFEA; listed as Homo sapiens) [compound 274]
“++” (≧20% = ++) | 277 (LLPPLESLATV; listed as Homo sapiens) [compound 277]
